The values that follow are results of earlier work, collected in PMC5382571.

pKd: −log10 of the molar value. Where two headings read alike, the source gives them in different places.

Data set [1] has as its target PCNA (Homo sapiens) (UniProt P12004).
The target is the same in data set [2]. This is another data set of the same source.

Chain of UniProt P12004 (P12004 whole entry): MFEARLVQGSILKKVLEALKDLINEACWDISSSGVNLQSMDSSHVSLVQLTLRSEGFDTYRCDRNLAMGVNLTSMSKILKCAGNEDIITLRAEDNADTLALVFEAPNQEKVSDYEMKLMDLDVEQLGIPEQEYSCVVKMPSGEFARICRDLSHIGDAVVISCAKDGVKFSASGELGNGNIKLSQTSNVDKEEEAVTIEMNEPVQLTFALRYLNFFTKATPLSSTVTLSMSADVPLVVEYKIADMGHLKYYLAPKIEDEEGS

For orientation: pKd means −log10 of the Kd, conventionally taken in molar units. On to RFC (from UniProt P35251), for which the pKd in data set [1] was 9.70.
In the case of “DNA polymerase delta (from UniProt P28340)”, the negative-log Kd (pKd) in data set [2] was greater than 8.00.
